How the values were obtained:
Type in all cases: cell-based
MCF-7-TR4 cells = test: MCF-7 cells growth assay (cell counting); details: MCF-7-TR4 cells (E2 also in MCF-7-pBIG); 10 nM E2; Dox
Procedure: MCF-7-TR4 and MCF-7-pBIG cells, which were deprived of estrogen by culturing in phenol-free DMEM medium supplement with 10% charcol-stripped FBS for 4 days, were plated at 10^4 cells/well into 24-well plate. […] Cells were trypsinized at the specified time points and counted with a hemocytometer to determine cell density per sample.

cyclin D1 = test: Western blot of cyclin D1 in MCF-7-TR4 cells; details: 10 nM E2, Dox
Procedure: MCF-7-TR4 or MCF-7-pBIG cells were cultured in DMEM containing 10% charcoal dextran-treated FBS for 3 days and then 1×10^6 cells were seeded on 100-mm dishes. […] The lysate protein amount was quantitated by Bradford assay (Bio-Rad, Hercules, Calif.) with bovine serum albumin as a reference standard. One hundred μg protein was loaded and after electrophoresis on 10% SDS-PAGE was transferred onto Immobulin (Milipore, Bedford, Mass.). The membrane was blotted with anti-cyclin D1 rabbit polyclonal Ab (H-295) (Santa Cruz). Alkaline phosphatase conjugated secondary Ab was used.

MCF7-TR2 cells [1] = test: MTT growth assay, MCF7-TR2 cells
Procedure: (§1) (A) Growth assays were performed by MTT method as instructed by manufacturer (Sigma). 5×10^3 MCF7-pBIG and MCF7-TR2 cells were seeded in 24-well plates and incubated in RPMI with 10% CD-FCS for 48 h. […] After 3- and 5-day treatment, cells were harvested for MTT assay. Data represents the relative folds of MTT O.D.570 values at day 5 divided by that at day 3. […] Cells were then trypsinized and fixed overnight in 70% Ethanol. After cells were incubated with 1 mg/ml RNase A (Sigma) and propidium iodide (Roche Molecular Biochemicals), the DNA contents of cells were measured by a flow cytometry. (C) Percentage of growth suppression by TR2. MCF7-TR2 cells were seeded at 5×10^3 cells per well in 24-well plates. […] The treatments were changed every two days. The indices of cell growth were determined by MTT assay. The MTT values from cells without doxycycline were set as 100% in each kind of treatment. Values are represented by the percentage of growth suppression from cells with doxycycline to that without doxycycline.

MCF7-TR2 cells [2] = test: Cell cycle profile by flow cytometry, MCF7-TR2 cells; details: 3 days, E2, or E2 with doxycycline-induced TR2
Procedure: as §1

Row | Molecule | Cell growth (cell number) (MCF-7-TR4 cells) | Cyclin D1 expression (cyclin D1) | Cell growth suppressed by TR2, compared to cells without doxycycline (MCF7-TR2 cells [1]; all-trans retinoic acid treated cells (all-trans RA)) | Cell growth suppressed by TR2, compared to cells without doxycycline (MCF7-TR2 cells [1]; presence of E2, 6- and 8-day treatments) | Cell growth suppressed by TR2, compared to cells without doxycycline (MCF7-TR2 cells [1]; under 5 μM tamoxifen treatment) | Cells in G1 (MCF7-TR2 cells [2]) [%] | Cells in S (MCF7-TR2 cells [2]) [%]
1 | TR4: human testicular orphan nuclear receptor 4, SEQ ID NO:16; expressed from plasmid or in vitro translated (protein) MTSPSPRIQIISTDSAVASPQRIQGSEPASGPLSVFTSLNKEKIVTDQQTGQKIQIVTAVDASGSPKQQFILTSPDGAGTGKVILASPETSSAKQLIFTTSDNLVPGRIQIVTDSASVERLLGKTDVQRPQVVEYCVVCGDKASGRHYGAVSCEGCKGFFKRSVRKNLTYSCRSSQDCIINKHHRNRCQFCRLKKCLEMGMKMESVQSERKPFDVQREKPSNCAASTEKIYIRKDLRSPLIATPTFVADKDGARQTGLLDPGMLVNIQQPLIREDGTVLLATDSKAETSQGALGTLANVVTSLANLSESLNNGDTSEIQPEDQSASEITRAFDTLAKALNTTDSSSSPSLADGIDTSGGGSIHVISRDQSTPIIEVEGPLLSDTHVTFKLTMPSPMPEYLNVHYICESASRLLFLSMHRARSIPAFQGLGQDCNTSLVRACWNELFTLGLAQCAQVMSLSTILAAIVNHLQNSIQEDKLSGDRIKQVMEHIWKLQEFCNSMANWDIDGYEYAYLKAIVLFSPDHPGLTSTSQIEKFQEKAQMELQDYVQKTYSEDTYRLARILVRLPALRLMSSNITEELFFTGLIGNVSIDSIIPYILKMETAEYNGQITGVSL | repress | suppress |  |  |  |  | 
2 | TR2: human testicular orphan nuclear receptor 2, 603 amino acids (protein, UniProt P13056 1-603, looked up, full-length, human testicular orphan nuclear receptor 2, 603 amino acids) MATIEEIAHQIIEQQMGEIVTEQQTGQKIQIVTALDHNTQGKQFILTNHDGSTPSKVILARQDSTPGKVFLTTPDAAGVNQLFFTTPDLSAQHLQLLTDNSPDQGPNKVFDLCVVCGDKASGRHYGAVTCEGCKGFFKRSIRKNLVYSCRGSKDCIINKHHRNRCQYCRLQRCIAFGMKQDSVQCERKPIEVSREKSSNCAASTEKIYIRKDLRSPLTATPTFVTDSESTRSTGLLDSGMFMNIHPSGVKTESAVLMTSDKAESCQGDLSTLANVVTSLANLGKTKDLSQNSNEMSMIESLSNDDTSLCEFQEMQTNGDVSRAFDTLAKALNPGESTACQSSVAGMEGSVHLITGDSSINYTEKEGPLLSDSHVAFRLTMPSPMPEYLNVHYIGESASRLLFLSMHWALSIPSFQALGQENSISLVKAYWNELFTLGLAQCWQVMNVATILATFVNCLHNSLQQDKMSTERRKLLMEHIFKLQEFCNSMVKLCIDGYEYAYLKAIVLFSPDHPSLENMEQIEKFQEKAYVEFQDYITKTYPDDTYRLSRLLLRLPALRLMNATITEELFFKGLIGNIRIDSVIPHILKMEPADYNSQIIGHSI |  |  | 29-45% | 71-72% | 8-9% | 58.1 | 14.5
